Experimental data reported in patent US20210355178A1 (UNIVERSIT T ULM, published 2021).

Columns and labels:
complement factor C3b [1] = molecular target: T1, complement factor C3b (UniProt P01024 23-667; P01024 749-1663); test: SPR, C3b amine-coupled (5610 RU), DAF-Fc as analyte
Description: 2600 RU of Bb were deposited by standard amine coupling onto a carboxymethyldextran sensorchip. Running buffer was PBS supplemented with 1 mM MgCl2 and 0.005% Tween 20. […] 5610 RU of C3b were deposited by standard amine coupling onto a carboxymethyldextran sensorchip. Running buffer was PBS supplemented with 1 mM MgCl2 and 0.005% Tween 20.

complement factor C3b [2] = molecular target: T1, complement factor C3b; test: SPR, C3b amine-coupled (4030 RU), 1:1 steady-state affinity fit
Text: FIG. 3: C3b binding activity of miniFH and Fc-fusion variants of miniFH. Surface plasmon resonance (SPR) sensorgrams for C3b binding of miniFH (A), miniFH-Fc (C), Fc-miniFH (E) and Fc-miniFH-short (G) (assayed at a concentration range as specified; 4030 RU of C3b were deposited by amine). (B) Respective concentration response plots with fitted affinity (1:1 steady-state affinity fit) for C3b binding of miniFH (B), miniFH-Fc (D), Fc-miniFH (F) and Fc-miniFH-short (H) are shown. The affinity equilibrium constant is stated in the panes.
Surface plasmon resonance experiments were performed at 25° C. on a Reichert SR7500DC SPR instrument in PBS containing 0.005% Tween20 at a flow of 25 μl/min. 4030 response units (RU) of C3b were immobilized onto a carboxymethyldextran (CMD) 500 sensor chip (Xantec) and binding to amine coupled C3b was assayed. The analytes were injected at the indicated concentrations. To probe binding, a concentration series of miniFH or Fc fusions of miniFH were injected (at 25 μl/min for 2.5 min) followed by buffer flow for 300 s and a regeneration step consisting of an injection of 1 M NaCl for 30 s. The highest concentration of each series was injected twice to assess reproducibility. […]

T1 sequence (P01024 23-667 limits assumed, chain 1 of 2): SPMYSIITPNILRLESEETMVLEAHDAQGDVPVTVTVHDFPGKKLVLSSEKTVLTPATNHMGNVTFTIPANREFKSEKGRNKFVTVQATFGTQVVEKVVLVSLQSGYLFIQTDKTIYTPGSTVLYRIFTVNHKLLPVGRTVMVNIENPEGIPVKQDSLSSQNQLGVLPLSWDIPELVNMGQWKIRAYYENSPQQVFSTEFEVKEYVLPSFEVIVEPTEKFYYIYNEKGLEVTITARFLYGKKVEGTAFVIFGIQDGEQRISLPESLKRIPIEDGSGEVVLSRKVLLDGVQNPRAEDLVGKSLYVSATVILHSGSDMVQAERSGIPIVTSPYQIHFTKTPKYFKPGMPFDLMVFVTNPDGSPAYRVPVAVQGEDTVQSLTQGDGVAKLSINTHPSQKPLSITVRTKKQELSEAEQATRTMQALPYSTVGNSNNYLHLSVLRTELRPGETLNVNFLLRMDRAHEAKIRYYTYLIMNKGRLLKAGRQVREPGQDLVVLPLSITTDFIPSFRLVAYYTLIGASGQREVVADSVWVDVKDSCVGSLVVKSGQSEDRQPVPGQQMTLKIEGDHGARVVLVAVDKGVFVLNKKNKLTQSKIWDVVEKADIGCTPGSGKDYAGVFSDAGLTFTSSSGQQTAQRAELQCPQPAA
T1 sequence (P01024 749-1663 limits assumed, chain 2 of 2): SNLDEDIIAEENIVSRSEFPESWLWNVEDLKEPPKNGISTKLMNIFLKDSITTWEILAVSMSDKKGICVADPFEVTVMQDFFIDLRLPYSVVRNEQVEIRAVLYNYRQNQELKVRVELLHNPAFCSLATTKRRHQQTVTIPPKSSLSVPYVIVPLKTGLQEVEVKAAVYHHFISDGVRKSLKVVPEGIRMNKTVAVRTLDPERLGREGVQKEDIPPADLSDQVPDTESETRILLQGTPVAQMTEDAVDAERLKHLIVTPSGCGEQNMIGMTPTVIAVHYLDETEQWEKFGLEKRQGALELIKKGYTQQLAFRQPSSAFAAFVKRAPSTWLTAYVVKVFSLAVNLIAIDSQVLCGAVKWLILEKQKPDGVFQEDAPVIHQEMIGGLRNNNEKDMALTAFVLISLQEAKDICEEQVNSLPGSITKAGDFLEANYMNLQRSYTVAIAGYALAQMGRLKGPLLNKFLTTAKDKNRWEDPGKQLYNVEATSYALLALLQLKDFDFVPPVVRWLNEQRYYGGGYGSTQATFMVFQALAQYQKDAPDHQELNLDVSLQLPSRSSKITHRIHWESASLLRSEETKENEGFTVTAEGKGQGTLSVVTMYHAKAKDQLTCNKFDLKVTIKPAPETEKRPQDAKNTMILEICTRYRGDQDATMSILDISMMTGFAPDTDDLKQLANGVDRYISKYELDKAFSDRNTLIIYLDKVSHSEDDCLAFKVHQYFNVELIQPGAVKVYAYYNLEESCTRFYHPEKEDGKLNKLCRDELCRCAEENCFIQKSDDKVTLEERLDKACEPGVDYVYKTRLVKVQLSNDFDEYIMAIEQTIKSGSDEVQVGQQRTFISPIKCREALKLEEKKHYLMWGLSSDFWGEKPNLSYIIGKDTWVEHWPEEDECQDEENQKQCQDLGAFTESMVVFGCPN

binding result (complement factor C3b [1])	fold increased affinity over miniFH (complement factor C3b [2])	Binder
no binding	–	DAF-Fc (Fc fusion, not shown: Fc module at the C-terminus) DCGLPPDVPNAQPALEGRTSFPEDTVITYKCEESFVKIPGEKDSVICLKGSQWSDIEEFCNRSCEVPTRLNSASLKQPYITQNYFPVGTVVEYECRPGYRREPSLSPKLTCLQNLKWSTAVEFCKKKSCPNPGEIRNGQIDVPGGILFGATISFSCNTGYKLFGSTSSFCLISGSSVQWSDPLPECREIYCPAPPQIDNGIIQGERDHYGYRQSVTYACNKGFTMIGEHSIYCTVNNDEGEWSGPPPECRGGGGGGPGCPAPELLGGPSVFLFPPKPKDTLMISRTPEVTCVVVDVSHEDPEVKFNWYVDGVEVHNAKTKPREEQYQSTYRVVSVLTVLHQDWLNGKEYKCKVSNKALPAPIEKTISKAKGQPREPQVYTLPPSREEMTKNQVSLTCLVKGFYPSDIAVEWESNGQPENNYKTTPPVLDSDGSFFLYSKLTVDKSRWQQGNVFSCSVMHEALHNHYTQKSLSLSPGGGGGGG
–	~2 fold	miniFH-Fc (Fc fusion, Produced in Pichia pastoris) EDCNELPPRRNTEILTGSWSDQTYPEGTQAIYKCRPGYRSLGNIIMVCRKGEWVALNPLRKCQKRPCGHPGDTPFGTFTLTGGNVFEYGVKAVYTCNEGYQLLGEINYRECDTDGWTNDIPICEVVKCLPVTAPENGKIVSSAMEPDREYHFGQAVRFVCNSGYKIEGDEEMHCSDDGFWSKEKPKCVEISCKSPDVINGSPISQKIIYKENERFQYKCNMGYEYSERGDAVCTESGWRPLPSCEEAGGGGGGGGGGGGGKCGPPPPIDNGDITSFPLSVYAPASSVEYQCQNLYQLEGNKRITCRNGQWSEPPKCLHPCVISREIMENYNIALRWTAKQKLYSRTGESVEFVCKRGYRLSSRSHTLRTTCWDGKLEYPTCAGPGGGGGPGCPAPELLGGPSVFLFPPKPKDTLMISRTPEVTCVVVDVSHEDPEVKFNWYVDGVEVHNAKTKPREEQYQSTYRVVSVLTVLHQDWLNGKEYKCKVSNKALPAPIEKTISKAKGQPREPQVYTLPPSREEMTKNQVSLTCLVKGFYPSDIAVEWESNGQPENNYKTTPPVLDSDGSFFLYSKLTVDKSRWQQGNVFSCSVMHEALHNHYTQKSLSLSPGGGGGGG
